Measured values: patent US8993725B2, “Notch-based fusion proteins and uses thereof” (The Trustees of Columbia University in the City of New York, priority 2004, dated 2015)
“Also recorded” adds a separate entry of the source.

Experiments:
MMP9 mRNA = assay: RT-PCR analysis of MMP9 expression in Ad-VEGF-HUVEC; format: cell-based, Human
Description: (§1) FIGS. 24A-B show gelatin zymography analysis of MMP-9 and MMP-2 activity stimulated by VEGF in HUVEC. […] Transduced HUVEC were cultured on fibrin gel on the indicated day (i.e. D2, D4, D6, D8). Similar results were also obtained by using collagen gel, although induction of MMP-9 was stronger on fibrin gel than collagen gel (data not shown). […] HUVEC were transduced with Ad-N1ECDFc at the indicated doses and condition medium was collected from HUVEC cultured on collagen gel at day 4. FIGS. 24C-D show up-regulation of MMP-9 and MT1-MMP with Notch signaling. HUVEC were transduced with either Ad-LacZ or Ad-N1IC at 40 MOI. Numbers show PCR cycles. […] HUVEC were transduced with Ad-VEGF in the absence or presence of co-transduction of Ad-N1ECDFc at 40 MOI each. Ad-LacZ was co-transduced to make the same total amount of adenovirus at 80 MOI.
(§2) Requisition of MMPs for angiogenic sprouting has been established by synthetic MMP inhibitors (16). GM6001 is one broad inhibitor against MMPs including MMP2, MMP9 and MT1-MMP (18).

Ad-VEGF-infected HUVEC = assay: VEGF-induced budding (sprouting assay) of Ad-VEGF-HUVEC on collagen gel; format: cell-based, Human; conditions: for Inhibition of VEGF-induced HUVEC budding: co-infection with Ad-VEGF; for Inhibition of VEGF-induced HUVEC budding / Effect of fusion protein adenovirus alone on HUVEC morphology / bud formation: collagen gel; for Effect of fusion protein adenovirus alone on HUVEC morphology / bud formation: without Ad-VEGF
Description: For making collagen gels, an ice-cold solution of porcine type I collagen (Nitta gelatin, Tokyo, Japan) was mixed with 10×RPMI1640 medium and neutralization buffer at the ratio of 8:1:1. 400 μl aliquots of collagen gel were then added to 24-well plates and allowed to gel for at least 1 hour at 37° C. Following adenoviral infection (above), HUVEC was harvested and plated at 1.3×10^5 cells per well onto the top of the collagen gel in 24-well plates in 0.8 ml of EGM2 medium. HUVEC became nearly confluent 48 hours after plating. After seeding, medium was changed every 2 days for 1 week. Sprouting was observed and photographs taken after 8 days with an Olympus digital camera mounted to a microscope. For quantification of the number of sprouts, 5 fields per each well were randomly selected and sprouting was counted under microscopy in a blind manner by two investigators.
HUVEC (Human Umbilical Vein Endothelial cells) growth are dependent on VEGF (FIGS. 26A and 26B) and differentiation-related biological responses, such as sprouting, and can be evaluated at an early stage (7). At first, we examined whether adenovirally transduced VEGF induced both Notch and Notch ligand expression in HUVEC cultured with complete medium containing bFGF (FIG. 22A), as reported (5). […] Transduced-VEGF also activated Notch signaling in a dose-dependent manner by measuring CSL-luciferase reporter activity (FIG. 22B), which was transactivated with Notch signaling (8). Notch signaling was activated at a higher dosage of Ad-VEGF, compared to proliferation (FIG. 26A). […] Since Notch mutants lacking both transmembrane and cytoplasmic domains functioned as dominant negative inhibitors against Notch signaling (9), we made a Notch-based fusion protein or decoy (N1ECDFc) to inhibit Notch signaling (FIG. 22D). […] Then, we examined whether N1ECDFc inhibited activation of Notch signaling by transduced VEGF in HUVEC (FIG. 22G). […] Gerhardt et al. reported that VEGF controlled angiogenesis in the early postnatal retina by guiding filopodia extension at the tips of the vascular sprouts (10). During angiogenic sprouting, the formation of a specialized endothelial cell making filopodia projections among quiescent endothelial cells, might be one of the early events. Here we mean formation of a single endothelial cell making filopodia protrusions as budding. Budding of the primary endothelial cells is induced by cultivating them 3-dimensionally on either fibrin or collagen gel (11). In the case where Ad-VEGF-HUVEC were cultured on collagen gel with complete medium, transduced-HUVEC made filopodia extensions into the collagen gel for 5 days (FIG. 22H) and the number of buds was increased in a dose-dependent manner (FIG. 27A). […] Since both VEGF and Notch signaling induce HUVEC budding, we examined whether N1ECDFc inhibited VEGF-induced HUVEC budding (FIG. 22H-I).

MT1-MMP mRNA = assay: RT-PCR analysis of MT1-MMP expression in Ad-VEGF-HUVEC; format: cell-based, Human
Description: as §1, §2

[1] = tested on: Notch1 signaling activated by Notch ligands (Jagged1, Delta-like 1, Delta-like 4); assay: Co-culture assay of ligand-induced Notch signaling (CSL-luciferase reporter); format: cell-based; conditions: for Inhibition of ligand-induced Notch1 signaling (CSL reporter activity): fusion protein expression vector co-transfected into Notch1-expressing HeLa, co-culture with ligand-expressing 293 (Bosc) cells
Description: Notch and Notch responsive transcriptional reporters are expressed in a “Notch-responsive” cell, HeLa. Notch ligands, Jagged-1, Delta-like 1, or Delta-like 4 are expressed in a “ligand-presenting” cell, 293. Expression is mediated by transfection of individual cell populations, cells are co-cultured, and then assayed for Notch-dependent reporter activity.
To determine ligand-induced Notch signaling, co-culture assays were performed using HeLa and 293-derived Bosc cells. Transient transfections were performed by calcium phosphate precipitation. Hela cells plated 1-day prior in 10-cm plates at 1.5×10^6 were transfected with 333 ng of pBOS Notch1, 333 ng pGA981-6, and 83 ng pLNC lacZ with either 666 ng pCMV-Fc or pHyTC-N1ECDFc (333 ng for ×1, 666 ng for ×2). Bosc cells plated 1-day prior in 10-cm plates at 4×10^6 were transfected with either 680 ng pHyTc-Jagged1, pHyTc-Dll1, pHyTc-Dll4, or pHyTc-x (empty vector). One day after transfection, the cells were co-cultured in triplicate (HeLa:Bosc, 1:2) on 12-well plates for 24 hours. Cells were harvested and luciferase activity was determined 2-days post-transfection using the Enhanced Luciferase assay kit (BD PharMingen), and β-galactosidase activity was determined using the Galacto-Light Plus kit (PE Biosystems). All assays were performed in a Berthold dual-injection luminometer.
An in vitro co-culture system (FIG. 3) with ligands expressed on one cell and Notch receptor activation scored in another cell was used to measure transcriptional activation of the Notch pathway. […] The N1ECD/Fc expression vector was co-transfected at different ratios with full-length Notch1 and the CSL-luciferase reporter in HeLa cells, followed by co-culture with ligand expressing 293 cells.

[2] = Ad-LacZ infected HUVEC, data not shown
[3] = co-transduction with Ad-VEGF, 40 MOI each

B1: N1ECDFc: Notch-based fusion protein or decoy: extracellular domain of Notch1 containing the EGF-repeats fused to the Fc portion of an antibody (protein)
chain: ARGLRCSQPSGTCLNGGRCEVANGTEACVCSGAFVGQRCQDPSPCLSTPCKNAGTCYVVDHGGIVDYACSCPLGFSGPLCLTPLANACLANPCRNGGTCDLLTLTEYKCRCPPGWSGKSCQQADPCASNPCANGGQCLPFESSYICGCPPGFHGPTCRQDVNECSQNPGLCRHGGTCHNEIGSYRCACRATHTGPHCELPYVPCSPSPCQNGGTCRPTGDTTHECACLPGFAGQNCEENVDDCPGNNCKNGGACVDGVNTYNCRCPPEWTGQYCTEDVDECQLMPNACQNAGTCHNSHGGYNCVCVNGWTGEDCSDNIDDCASAACFQGATCHDRVASFYCECPHGRTGLLCHLNDACISNPCNEGSNCDTNPVNGKAICTCPRGYTGPACSQDVDECALGANPCEHAGKCLNTLGSFECQCLQGYTGPRCEIDVNECISNPCQNDATCLDQIGEFQCICMPGYEGVYCEINTDECASSPCLHNGRCVDKINEFLCQCPKGFSGHLCQYDVDECASTPCKNGAKCLDGPNTYTCVCTEGYTGTHCEVDIDECDPDPCHIGLCKDGVATFTCLCQPGYTGHHCETNINECHSQPCRHGGTCQDRDNYYLCLCLKGTTGPNCEINLDDCASNPCDSGTCLDKIDGYECACEPGYTGSMCNVNIDECAGSPCHNGGTCEDGIAGFTCRCPEGYHDPTCLSEVNECNSNPCIHGACRDGLNGYKCDCAPGWSGTNCDINNNECESNPCVNGGTCKDMTSGYVCTCREGFSGPNCQTNINECASNPCLNQGTCIDDVAGYKCNCPLPYTGATCEVVLAPCATSPCKNSGVCKESEDYESFSCVCPTGWQGQTCEIDINECVKSPCRHGASCQNTNGSYRCLCQAGYTGRNCESDIDDCRPNPCHNGGSCTDGVNAAFCDCLPGFQGAFCEEDINECATNPCQNGANCTDCVDSYTCTCPTGFNGIHCENNTPDCTESSCFNGGTCVDGINSFTCLCPPGFTGSYCQYDVNECDSRPCLHGGTCQDSYGTYKCTCPQGYTGLNCQNLVRWCDSAPCKNGGKCWQTNTQYHCECRSGWTGFNCDVLSVSCEVAAQKRGIDVTLLCQHGGLCVDEEDKHYCHCQAGYTGSYCEDEVDECSPNPCQNGATCTDYLGGFSCKCVAGYHGSNCSEEINECLSQPCQNGGTCIDLTNTYKCSCPRGTQGVHCEINVDDCHPPLDPASRSPKCFNNGTCVDQVGGYTCTCPPGFVGERCEGDVNECLSNPCDPRGTQNCVQRVNDFHCECRAGHTGRRCESVINGCRGKPCRNGGVCAVASNTARGFICRCPARFEGATCENDARTCGSLRCLNGGTCISGPRSPTCLCLGSFTGPECQFPASSPCVGSNPCYNQGTCEPTSESPFYRCLCPAKFNGLLCHILDYSFTDLGPG
modifications: left off: a dimerising Fc or GST
notes: Notch-based fusion protein or decoy: extracellular domain of Notch1 containing the EGF-repeats fused to the Fc portion of an antibody
With B1 the “Expression of MMP9, fusion protein adenovirus alone” value (MMP9 mRNA; [2]) was “did not affect expression of either MMP9 or MT1-MMP”, the “VEGF-induced up-regulation of MMP9 mRNA” value (MMP9 mRNA; [3]) was “this induction was inhibited” and the “Inhibition of VEGF-induced HUVEC budding” value (Ad-VEGF-infected HUVEC) was “clearly inhibited”. For the same molecule, the “Inhibition of VEGF-induced HUVEC budding” value (Ad-VEGF-infected HUVEC; listed as Ad-N1ECDFc) was “clearly inhibited; also recorded: inhibition of budding”, the “Inhibition of VEGF-induced HUVEC budding” value (Ad-VEGF-infected HUVEC; listed as Notch fusion protein) was “clearly inhibited; also recorded: could inhibit VEGF-induced budding” and the “Cell number in VEGF-induced HUVEC budding assay” value (Ad-VEGF-infected HUVEC; co-transduction with Ad-VEGF) was “without affecting cell number”. For the same molecule, the “Effect of fusion protein adenovirus alone on HUVEC morphology / bud formation” value (from here on “Effect … on HUVEC morphology / bud formation”) (Ad-VEGF-infected HUVEC; listed as Ad-N1ECDFc) was “Neither Ad-LacZ or Ad-N1ECDFc-transduced HUVEC formed buds”, the “Effect … on HUVEC morphology / bud formation” value (Ad-VEGF-infected HUVEC; listed as Ad-Notch fusion protein) was “had less effect on morphology” and the “Effect … on HUVEC morphology / bud formation” value (Ad-VEGF-infected HUVEC; listed as Ad-Notch-based fusion protein) was “had less effect on morphology”. The “Expression of MT1-MMP, fusion protein adenovirus alone” value (MT1-MMP mRNA; [2]) was “did not affect expression of either MMP9 or MT1-MMP”, the “VEGF-induced up-regulation of MT1-MMP mRNA” value (MT1-MMP mRNA; [3]) was “this induction was inhibited” and the “Concentration-dependency of inhibition of Notch1 signaling” value ([1]; 2:1 versus 1:1 ratio of N1ECD/Fc to Notch1 vector) was “a 2:1 ratio of N1ECD/Fc to Notch1 was more effective in inhibiting signaling than a 1:1 ratio”. The “Block of signaling by individual Notch ligands” value ([1]; Jagged1, Delta-like 1 or Delta-like 4 expressing cells) was “could block signaling mediated by Jagged1, Delta-like 1 or Delta-like 4”, the “Inhibition of ligand-induced Notch1 signaling (CSL reporter activity)” value (shortened to “Inhibition … (CSL reporter activity)”) [1] was “inhibition of Notch signaling” and the “Inhibition … (CSL reporter activity)” value ([1]; listed as N1ECD/Fc) was “activation of Notch1 signaling by Notch ligands was reduced”. For the same molecule, the “Inhibition … (CSL reporter activity)” value ([1]; listed as Notch1ECD/Fc) was “functions to block ligand-dependent Notch signaling” and the “Inhibition … (CSL reporter activity)” value ([1]; listed as Notch-based fusion protein) was “these inductions were inhibited”.
